For 1 substance, EC50 and EC50 (ng/ml), CD40 agonist activity: up-regulation of CD86 on human B cells results are on record in patent publication US20230406948A1.

The target in test [1] is human CD40 on cells (native CD40 on Ramos cells, human B cells, human monocyte-derived dendritic cells; cell surface CD40) (human) (UniProt P25942). Description: FACS on live Ramos cells, goat anti-human IgG (H+L) PE.
The target is the same in test [2]. Description: cell-based or functional assay.

Chain of human CD40 on cells (native CD40 on Ramos cells, human B cells, human monocyte-derived dendritic cells; cell surface CD40) (human) (P25942 21-193): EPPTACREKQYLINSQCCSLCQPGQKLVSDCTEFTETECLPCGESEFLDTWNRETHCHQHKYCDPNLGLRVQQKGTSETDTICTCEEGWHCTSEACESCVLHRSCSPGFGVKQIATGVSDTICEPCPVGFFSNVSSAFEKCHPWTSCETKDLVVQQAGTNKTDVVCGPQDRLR

The substance SGN-40 (antibody) came in with an EC50 in test [1] of 0.0218 µg/mL. This substance had an EC50 (ng/ml), CD40 agonist activity: up-regulation of CD86 on human B cells in test [2] of 1260 ng/mL.
